Test results taken from the domain aggregation screens of Martell et al. (2025).

Test: soluble fraction after stress (log2 fold change); higher = more stays soluble; pooled small domains, quantitative proteomics
Details: stress: 50 degC
In short: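 The stress applied to every library was 50°C. These custom libraries of small protein domains were pooled and measured at high throughput with quantitative proteomics as the read-out. Aggregation propensity is expressed as the base-two logarithm of the fold change in how much of each protein remains soluble. The higher the value, the more of that protein stays in solution.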

Compared with “HMNFSKEYILVHSYKEIDILDALIVKYEATLVNREFDLFINSYIKINEDYAKLFRDEIISKTSGSMSIKEL”, “HMSSYAEVMERSKYLQLHKYKIWKSETDGFWRTYYLNEQGKRKMKKLKHSEDMIDFVIEYVQNNE” is lower in “soluble fraction (log2)” value: -0.825 for the first, -2.2 for the second.

“HMNELGSLIKRKREELGLSQEELARILGYKHKSSINKIELGLADVPRTKVPAFAKALGMTPVEFS” and “HMDDPYAGLRQRAYLFLRERDGAVPEEELIEHVFGSSGNPALWRPLLRQVLGADDRLDLRADGYWALRG” are within 0.2 log units of each other in “soluble fraction (log2)” value: 0.0771 for the first, 0.118 for the second.

First: HMKKALTAEQEARVRELYFRGINYYSANRYQDAIAEWRKVLAIDPNHEKAKNNIRQTLILLK
Second: HMQMTKSEFLDALRRALNGNMAAASVDDNIRFYDSYFYTEETKGRSEAEILSELGDPRILARTLIDAAD
The “soluble fraction (log2)” value of the first is lower: -0.257 for the first, 0.0125 for the second.

“HMQMSDTGAIEAMVKEALDENPQAIEDFKNGKGKALGFLMGQVMKKSKGQANGGIVNKLIKEELQKRIG” and “HMNDEQFAIAKNDLLLSLYDGKEVNNSAAEYIIAWESLEKSPSDYISSQLKNTAESIIKISFD” are within 0.2 log units of each other in “soluble fraction (log2)” value: 0.181 for the first, 0.0499 for the second.

“HMNNIINEAQIKQWVEEFYLSVSPRPTRATMIALVHKKIKEETKDGEEGQTVSETLINNFYTALEKEHKRK” and “HMRILGIDPGSVVTGYGVIDKSGNYLRHVLHGEIKPHKGYLLSEVLMDIFSKLSAVIVETNPQSV” are within 0.2 log units of each other in “soluble fraction (log2)” value: -0.0384 for the first, -0.0179 for the second.

First: HMQVEEKNKKIELYIEGKIKELESNLMYVPNENKKKLLMAFMNRNEDIEIIKTKIDTIFNKSVAAYKENM
Second: HMSNTIFGINGPVVTVASKDFSMQEMVYVGNERLVGEVISIDDDLTTIQVYEVTTGLKPGEPVVGTGSAM
The “soluble fraction (log2)” value of the first is higher: 0.237 for the first, -0.531 for the second.

First: HMNTKQRTAVMRILKQSSDPVSADDVFAALKDEYPSLALSTVYRNLERFADESMVKKDVWSDGIVRYSLAD
Second: HMEVAPEKVLEALNELPEIYKIVLNLYAVENMSHKEIAKKLGISLGSSKSRLSRGRVMLNTLLNR
The “soluble fraction (log2)” value of the first is higher: -0.189 for the first, -1.42 for the second.

“HMTGQVASMVERLAQRLKDQPQDAEGWAMLARSYSVLGRHPEALQAYEKALALRKDDANLLADYADSLA” and “HMKVSFEIEINGVTKSINSINEAKEAISELQDIMDNSTFGSEEFKNAATQIDKLQNKLVEALDK” are within 0.2 log units of each other in “soluble fraction (log2)” value: -0.087 for the first, -0.0374 for the second.

“HMSGYSTLFTRMSREDAQAVVSLLQDDGIEYRYNDDTGTVQVPSATVDQTRAKLVSAGYPRS” and “HMPQTDDSEPLGKYGRMRLAYLKNQRPVLYNQMLLNGTLWPHLQDVQKTAYEWLERTMTTLLDK” are within 0.2 log units of each other in “soluble fraction (log2)” value: -0.231 for the first, -0.0745 for the second.

Going from “HMALQLPFSFAKRHKVLVESAHEPVKVYHTPSTDFAVFAEVRRFLDQTFVLEEIAENRFEELLTSSFQRD” to “HMQTKEVDYGTFMSMIDEKNIGTVEIGDSQIVFTDKDNKNLYETGVMNDPDLAQRLHDAGATFSS”, the “soluble fraction (log2)” value rises from -1.27 to 0.201.

Compared with “HMEQGDTQQEIREKILNLLADGERHMITELKNIRTDQPIDDDKIVGKTLKTLLDEEEVYMDGSYIQLNG”, “HMGQAVTVPELKGLSFDEAIEKLDDAGLKYEVVDSNYVEDMKPGTVFETLPEAGSRVKPRRIVFLTINAF” is lower in “soluble fraction (log2)” value: 0.259 for the first, -0.319 for the second.

Compared with “HMERPYNGKQMEYHEGGVEKKETLFVEGGLSRVIQWDESGQKRSEVNISPTGVRREQYWDSSGKAIAKPS”, “HMNNIPFIITDERLNVIQSHLVPREVLDHPDRLRRQIDRFTEENQPKTVNYWWGPEHRHIIFYGKSK” is higher in “soluble fraction (log2)” value: 0.228 for the first, 0.445 for the second.

Going from “HMHKYEYESLNHVNVGSNLKYISTHFGQPKLIKKSKYHENLNFAYYLEKKFILTLILEGDRVNAYTITG” to “HMSHYDILEVDPKASATEIKQSFRKKSLQYHPDRNKSSDAHEYMTKITEAYNILGDKDKRRHYDMELKL”, the “soluble fraction (log2)” value rises from 0.0565 to 0.442.

For “HMNVPYEMVTQNGEVFYKYKVQPGEGVFAVSRTFSVSVAEILRVNPEANKGLKNGQVLLIPVPKDMIA”, the “soluble fraction (log2)” value was 0.0163.
